Sequences and labels used below:
B1: DsrC from Allochromatium vinosum, wild type [Allochromatium vinosum] / DsrEFH from Allochromatium vinosum (DsrE2F2H2 heterohexamer), wild type [Allochromatium vinosum] (parent complex)
chain 1: MADTIEVDGKQFAVDEEGYLSNLNDWVPGVADVMAKQDNLELTEEHWDIINFLREYYEEYQIAPAVRVLTKAVGKKLGKEKGNSKYLYSLFPYGPAKQACRFAGLPKPTGCV
chain 2: MKFALQINEGPYQHQASDSAYQFAKAALEKGHEIFRVFFYHDGVNNSTRLTTPPQDDRHIVNRWAELAEQYELDMVVCVAAAQRRGIVDEGEASRNGKDATNIHPKFRISGLGQLVEAAIQADRLVVFGD
chain 3: MSEVVKKFMYLNRKAPYGTIYAWEALEVVLIGAAFDQDVCVLFLDDGVYQLTRGQDTKGIGMKNFSPTYRTLGDYEVRRIYVDRDSLEARGLTQDDLVEIAFEDMETEEEFDNIVEVIDSARVSELMNESDAVFSF
chain 4: MSILHTVNKSPFERNSLESCLKFATEGASVLLFEDGIYAALAGTRVESQVTEALGKLKLYVLGPDLKARGFSDERVIPGISVVDYAGFVDLTTECDTVQAWL

The variants in the assay derive from B1. Nature of the assay: SPR; DsrEFH immobilized; reduced analyte, 80 nM; parent: 35; read off a plot.
chain 1 C100S, chain 1 C111S: the response is roughly 2.8 RU.

For chain 1 C100S, the response is roughly 31 RU.

For chain 1 C111S, the response was roughly 3 RU.

For the origin of these results see paper PMC3397948, “Cytoplasmic Sulfurtransferases in the Purple Sulfur Bacterium Allochromatium vinosum: Evidence for Sulfur Transfer from DsrEFH to DsrC” (PLoS ONE, 2012).
